Assay [1] concerns the target T1, GST (control, expressed alone without a PDZ domain) (UniProt P08515 1-218 = GST).
T1 construct: also called Glutathione S-Transferase
The assay can be described thus: affinity pull-down from clarified E. coli lysate on PSD-95 PDZ2 resin, wash, elution with free SIESDV peptide (400 ug/ml), SDS-PAGE with GelCode Blue.
Description: (§1) Resuspended cells were incubated on a shaking platform at low speed for 20 minutes at room temperature before the lysate was clarified by centrifugation at 16,000×g for 30 min at 4° C. […] The mixtures were then subjected to centrifugation at 1000×g for 2 min, and the supernatant was removed by pipetting. […] The cap was removed and the resin washed with 20 column volumes of Purification Buffer.

Assay [2] addresses T2, MBP (control, expressed alone without a PDZ domain) (UniProt P0AEX9 27-392 = MBP). Description: affinity chromatography on 2× nNOS PDZ-β-hairpin resin, SDS-PAGE.
Description: as §1
The target in assay [3] is T3, HaloTag-PDZ1+PDZ2 fusion protein (residues 61 to 249 of Mus musculus PSD-95) (Mus musculus, UniProt Q62108 61-249).
T3 construct: range 61-249; also called PSD-95 PDZ1-PDZ2; not shown: HaloTag
Description: affinity chromatography on HaloTag-PDZ1+PDZ2 resin, SIESDV peptide elution, SDS-PAGE.

Assay [4] deals with T1, GST (control, expressed alone without a …). Description: affinity chromatography on 1× nNOS PDZ-β-hairpin resin, SDS-PAGE.
Description: as §1
For assay [5], the target named is T2, MBP (control, expressed alone without a …). Described as above.
Description: as §1
The target in assay [6] is T1, GST (control, expressed alone without a …). Description: affinity chromatography on … peptide resin, SDS-PAGE.
Description: as §1
Assay [7] has as its target T2, MBP (control, expressed alone without a …). The description is as above.
Description: as §1

T1 sequence (P08515 whole entry, the tested form may be a part): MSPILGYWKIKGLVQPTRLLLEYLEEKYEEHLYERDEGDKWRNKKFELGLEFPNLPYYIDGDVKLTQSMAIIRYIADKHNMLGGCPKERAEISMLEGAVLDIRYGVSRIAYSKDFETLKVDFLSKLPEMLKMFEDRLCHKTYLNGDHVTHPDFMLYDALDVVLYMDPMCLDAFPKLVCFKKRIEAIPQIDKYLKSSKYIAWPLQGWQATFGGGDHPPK

B1: PDZ2 domain of PSD-95 (other, UniProt Q62108 160-246, looked up)
chain: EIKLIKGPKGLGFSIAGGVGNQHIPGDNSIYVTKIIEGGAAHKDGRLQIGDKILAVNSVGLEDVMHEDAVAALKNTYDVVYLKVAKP
notes: domain: PDZ2; Species (Mus musculus) is stated only for the PDZ1+PDZ2 construct; also called PSD-95 PDZ2
Regarding B1, the binding result in assay [1] is “no binding”.

B2: 2× nNOS PDZ domain fusion protein that contains a BH after each nNOS PDZ domain (other)
chain: QPNVISVRLFKRKVGGLGFLVKERVSKPPVIISDLIRGGAAEQSGLIQAGDIILAVNDRPLVDLSYDSALEVLRGIASETHVVLILRGPEGFTTHLETTFTGDGTPKTIRVTQPLGTPTQPNVISVRLFKRKVGGLGFLVKERVSKPPVIISDLIRGGAAEQSGLIQAGDIILAVNDRPLVDLSYDSALEVLRGIASETHVVLILRGPEGFTTHLETTFTGDGTPKTIRVTQPLGTPT
notes: domain: nNOS PDZ domain with β-Hairpin; also called nNOS-BH-nNOS-BH; 2× nNOS PDZ-β-hairpin domains
As to B2, the binding result in assay [2] was “no binding”.

B3: cypin (guanine deaminase, Homo sapiens: AA 1-454) (other, UniProt Q9Y2T3 1-454, looked up)
chain: MCAAQMPPLAHIFRGTFVHSTWTCPMEVLRDHLLGVSDSGKIVFLEEASQQEKLAKEWCFKPCEIRELSHHEFFMPGLVDTHIHASQYSFAGSSIDLPLLEWLTKYTFPAEHRFQNIDFAEEVYTRVVRRTLKNGTTTACYFATIHTDSSLLLADITDKFGQRAFVGKVCMDLNDTFPEYKETTEESIKETERFVSEMLQKNYSRVKPIVTPRFSLSCSETLMGELGNIAKTRDLHIQSHISENRDEVEAVKNLYPSYKNYTSVYDKNNLLTNKTVMAHGCYLSAEELNVFHERGASIAHCPNSNLSLSSGFLNVLEVLKHEVKIGLGTDVAGGYSYSMLDAIRRAVMVSNILLINKVNEKSLTLKEVFRLATLGGSQALGLDGEIGNFEVGKEFDAILINPKASDSPIDLFYGDFFGDISEAVIQKFLYLGDDRNIEEVYVGGKQVVPFSSSV
notes: range 1-454; also called untagged cypin
In the case of B3, in assay [3], the binding result is “binds”.

B4: MBP-cypin (other, Homo sapiens, UniProt Q9Y2T3 1-454, looked up, not shown: large carriers)
chain: B3 chain
notes: range 1-454; also called cypin fused to an N-terminal MBP
In the case of B4, the binding result in assay [3] is recorded as “binds”.

B5: nNOS PDZ domain (AA 11-129 of Mus musculus nNOS) (other, UniProt Q9Z0J4 11-129, looked up)
chain: IQPNVISVRLFKRKVGGLGFLVKERVSKPPVIISDLIRGGAAEQSGLIQAGDIILAVNDRPLVDLSYDSALEVLRGIASETHVVLILRGPEGFTTHLETTFTGDGTPKTIRVTQPLGTP
notes: range 11-129; also called 1× nNOS PDZ domain; 1× nNOS PDZ-β-hairpin domain
On to B5, for which the binding result in assay [4] and in assay [5] was “no binding” throughout.
On to GAGSSIESDV (also called GluN2B ligand-NHS-Agarose) [NR2B (GluN2B) peptide ligand GAGSSIESDV], for which the binding result in assay [6] and in assay [7] was “no binding” in each case.
